# Measurements published in paper PMC7516205, “The Two-Component Locus MSMEG_0244/0246 Together With MSMEG_0243 Affects Biofilm Assembly in M. smegmatis Correlating With Changes in Phosphatidylinositol Mannosides Acylation” (Frontiers in Microbiology, 2020).
# B1: StrepMSMEG_0243 (truncated MSMEG_0243 lacking the predicted signal peptide) (natural protein, Mycobacterium smegmatis mc2155, UniProt A0QP20 26-116, looked up)
# chain: DPAPNPPNCTAADLAGVASGVSAGTSAYLFTHPQVNDFFTSLEGLPREEVKPKVADYLAANPQVKDELTAVRQPLVDLKNRCGTAPAPELP
# notes: truncated version lacking the predicted signal peptide (predicted cleavage site between pos. 25 and 26: ALA-DP); The methods name the vector once as pET-22(b)+ and once as pET-28(b)+; vector-derived residues may be present; also called apo-MSMEG_0243; source: E. coli Bl21 Rosetta, purified (Streptavidin beads, size exclusion chromatography)
# Biological target: the molecule itself
# Experiment: SEC; HiLoad Superdex 200 PG, 20 mM Tris-HCl, 100 mM NaCl, pH 7.4; apo protein after Strep-tag purification; elution profile overlaid with that of a protein of known size (25.0 kDa)
protein,measurement,value
B1,stoichiometry N,2
